The target of one assay is T1, BSA (UniProt P02769 25-607).
T1 construct: Negative control
The assay is described as follows: ELISA, 100 nM coated protein. On the technique in general: In an ELISA, binding on a coated surface is turned into a signal by an enzyme label.

For a further assay, the target named is T2, CTLA-4 (UniProt P16410 36-161, limits assumed).
T2 construct: Negative control; The construct is not described
T2 sequence (looked up): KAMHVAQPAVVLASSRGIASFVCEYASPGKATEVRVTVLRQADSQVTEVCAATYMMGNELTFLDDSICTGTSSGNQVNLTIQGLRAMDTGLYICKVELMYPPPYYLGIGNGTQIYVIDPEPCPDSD
Briefly: ELISA, 100 nM coated protein.

The target in assay [1] is CD71 (on cancer stem cells and cancer cell lines) (UniProt P02786 1-760, limits assumed). Briefly: cell-based or functional assay.
Chain of CD71 (on cancer stem cells and cancer cell lines) (P02786 whole entry): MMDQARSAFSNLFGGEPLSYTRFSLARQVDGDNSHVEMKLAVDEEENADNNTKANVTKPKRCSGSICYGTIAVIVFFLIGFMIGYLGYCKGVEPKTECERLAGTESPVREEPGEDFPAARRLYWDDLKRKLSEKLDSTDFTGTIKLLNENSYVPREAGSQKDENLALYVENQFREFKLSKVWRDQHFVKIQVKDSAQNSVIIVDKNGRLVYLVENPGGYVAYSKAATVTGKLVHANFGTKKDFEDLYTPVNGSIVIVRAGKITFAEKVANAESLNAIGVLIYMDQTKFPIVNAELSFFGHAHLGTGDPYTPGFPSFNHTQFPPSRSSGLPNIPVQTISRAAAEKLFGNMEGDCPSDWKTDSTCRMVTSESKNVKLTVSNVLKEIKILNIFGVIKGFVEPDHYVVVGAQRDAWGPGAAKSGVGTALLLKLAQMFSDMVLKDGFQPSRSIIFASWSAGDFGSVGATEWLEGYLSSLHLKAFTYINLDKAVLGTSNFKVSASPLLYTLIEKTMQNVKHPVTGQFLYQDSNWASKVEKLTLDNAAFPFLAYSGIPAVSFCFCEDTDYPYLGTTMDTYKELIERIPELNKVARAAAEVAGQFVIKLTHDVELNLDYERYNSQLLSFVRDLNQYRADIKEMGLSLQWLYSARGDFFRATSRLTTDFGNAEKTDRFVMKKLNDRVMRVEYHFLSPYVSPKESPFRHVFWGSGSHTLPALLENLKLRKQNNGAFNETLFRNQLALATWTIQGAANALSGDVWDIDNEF

T1 sequence (P02769 25-607 limits assumed): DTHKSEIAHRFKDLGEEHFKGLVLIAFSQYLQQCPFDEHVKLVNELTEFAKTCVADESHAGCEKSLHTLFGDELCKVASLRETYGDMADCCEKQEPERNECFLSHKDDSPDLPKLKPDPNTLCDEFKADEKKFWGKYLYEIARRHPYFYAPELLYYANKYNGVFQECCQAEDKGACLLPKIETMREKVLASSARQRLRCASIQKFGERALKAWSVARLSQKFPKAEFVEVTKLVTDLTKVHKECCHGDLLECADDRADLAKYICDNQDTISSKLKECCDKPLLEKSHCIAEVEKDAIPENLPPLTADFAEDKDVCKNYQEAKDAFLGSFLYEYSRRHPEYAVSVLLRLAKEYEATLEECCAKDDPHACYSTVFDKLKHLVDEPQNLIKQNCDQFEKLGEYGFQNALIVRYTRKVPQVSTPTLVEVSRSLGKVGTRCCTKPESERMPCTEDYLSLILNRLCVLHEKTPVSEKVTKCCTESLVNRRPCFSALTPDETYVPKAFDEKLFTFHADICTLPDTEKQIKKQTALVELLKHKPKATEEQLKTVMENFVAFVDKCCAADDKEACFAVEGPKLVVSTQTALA

B1: 1E12 항체 (antibody, V domains shown)
VH: QMQLVQSGAEVKKPGASVKVSCKASGYIFTDYYMHWVRQAPGQGLEWMGGISPIFGTANYAQNFQGRVTITADESTTTAYMELSNLRSEDTAVYYCAKDGAGPEYYYYGLDVWGQGTSVTVSS
VL: QSALTQPPSVSGSPGQSVTISCTGTSSDIGGYNYVSWYQHHPGKAPKLVISEVTKRPSGVPGRFSGSKSGNTASLTVSGLQAEDEADYYCSSYSDSDNLLFGGGTKLTVLG
notes: also called b) 단클론 항체
Regarding B1, the binding result in the assay with BSA is recorded as “no binding (tested: 1μg/mL)”. The binding result in the assay with CTLA-4 is “no binding (tested: 1μg/mL)”. Moreover, in assay [1], the “EC50 세포성장 저해, parent암 세포주 (AlamarBlue)” value was 18.3 nM and the “EC50 세포성장 저해, 암 줄기세포주 (AlamarBlue)” value stood at 53.3 nM.
